Drawing on the Human Domainome abundance scans (Beltran et al. 2025), this text covers abundance fitness for 50 variants.

B1: DnaJ homolog subfamily C member 2, residues 451 to 503; numbered along this chain, Q99543 (parent)
chain: SKNWSEDDLQLLIKAVNLFPAGTNSRWEVIANYMNIHSSSGVKRTAKDVIGKA

± gives the uncertainty stated by the source.

In this data set the parent is B1. The data set can be described thus: abundance fitness (aPCA) (normalised: wild type 0, dead -1); higher = more abundant; growth selection in yeast, the domain comes from the species named. The settings on record: Homo sapiens.
Take SKNQSEDDLQLLIKAVNLFPAGTNSRWEVIANYMNIHSSSGVKRTAKDVIGKA: the abundance fitness was -0.704 ± 0.095.

For SKNRSEDDLQLLIKAVNLFPAGTNSRWEVIANYMNIHSSSGVKRTAKDVIGKA, the abundance fitness was -0.777 ± 0.057. Next, SKNSSEDDLQLLIKAVNLFPAGTNSRWEVIANYMNIHSSSGVKRTAKDVIGKA: -0.599 ± 0.065. Next, SKNWSKDDLQLLIKAVNLFPAGTNSRWEVIANYMNIHSSSGVKRTAKDVIGKA: -0.679 ± 0.44; SKNWSFDDLQLLIKAVNLFPAGTNSRWEVIANYMNIHSSSGVKRTAKDVIGKA: 0.038 ± 0.38.

SKNWSYDDLQLLIKAVNLFPAGTNSRWEVIANYMNIHSSSGVKRTAKDVIGKA: the abundance fitness was -0.186 ± 0.16. Next, SKNWSRDDLQLLIKAVNLFPAGTNSRWEVIANYMNIHSSSGVKRTAKDVIGKA: -0.543 ± 0.16. Turning to SKNWSMDDLQLLIKAVNLFPAGTNSRWEVIANYMNIHSSSGVKRTAKDVIGKA, the abundance fitness was -0.366 ± 0.16. Next, SKNWSTDDLQLLIKAVNLFPAGTNSRWEVIANYMNIHSSSGVKRTAKDVIGKA: -0.175 ± 0.21. Next, SKNWSSDDLQLLIKAVNLFPAGTNSRWEVIANYMNIHSSSGVKRTAKDVIGKA: 0.074 ± 0.12; SKNWSLDDLQLLIKAVNLFPAGTNSRWEVIANYMNIHSSSGVKRTAKDVIGKA: -0.404 ± 0.17; SKNWSDDDLQLLIKAVNLFPAGTNSRWEVIANYMNIHSSSGVKRTAKDVIGKA: -0.154 ± 0.16. Next, SKNWSGDDLQLLIKAVNLFPAGTNSRWEVIANYMNIHSSSGVKRTAKDVIGKA: -0.155 ± 0.17; SKNWSQDDLQLLIKAVNLFPAGTNSRWEVIANYMNIHSSSGVKRTAKDVIGKA: -0.055 ± 0.15; SKNWSPDDLQLLIKAVNLFPAGTNSRWEVIANYMNIHSSSGVKRTAKDVIGKA: 0.107 ± 0.33. Regarding SKNWSCDDLQLLIKAVNLFPAGTNSRWEVIANYMNIHSSSGVKRTAKDVIGKA, the abundance fitness was 0.051 ± 0.13. As for SKNWSHDDLQLLIKAVNLFPAGTNSRWEVIANYMNIHSSSGVKRTAKDVIGKA, the figure is -0.615 ± 0.31; as for SKNWSVDDLQLLIKAVNLFPAGTNSRWEVIANYMNIHSSSGVKRTAKDVIGKA, -0.121 ± 0.12.

As to SKNWSEDDLTLLIKAVNLFPAGTNSRWEVIANYMNIHSSSGVKRTAKDVIGKA, the abundance fitness was -0.319 ± 0.073.

Turning to SKNWSEDDLALLIKAVNLFPAGTNSRWEVIANYMNIHSSSGVKRTAKDVIGKA, the abundance fitness is -0.189 ± 0.063. As for SKNWSEDDLELLIKAVNLFPAGTNSRWEVIANYMNIHSSSGVKRTAKDVIGKA, the figure is -0.054 ± 0.072.

As for SKNWSEDDLCLLIKAVNLFPAGTNSRWEVIANYMNIHSSSGVKRTAKDVIGKA, the abundance fitness was -0.577 ± 0.086. Next, SKNWSEDDLWLLIKAVNLFPAGTNSRWEVIANYMNIHSSSGVKRTAKDVIGKA: -0.706 ± 0.094; SKNWSEDDLFLLIKAVNLFPAGTNSRWEVIANYMNIHSSSGVKRTAKDVIGKA: -0.483 ± 0.083; SKNWSEDDLLLLIKAVNLFPAGTNSRWEVIANYMNIHSSSGVKRTAKDVIGKA: -0.141 ± 0.056. As for SKNWSEDDLYLLIKAVNLFPAGTNSRWEVIANYMNIHSSSGVKRTAKDVIGKA, the figure is -0.207 ± 0.094; as for SKNWSEDDLSLLIKAVNLFPAGTNSRWEVIANYMNIHSSSGVKRTAKDVIGKA, -0.163 ± 0.06.

Regarding SKNWSEDDLGLLIKAVNLFPAGTNSRWEVIANYMNIHSSSGVKRTAKDVIGKA, the abundance fitness is -0.141 ± 0.062. Next, SKNWSEDDLILLIKAVNLFPAGTNSRWEVIANYMNIHSSSGVKRTAKDVIGKA: -0.212 ± 0.082; SKNWSEDDLVLLIKAVNLFPAGTNSRWEVIANYMNIHSSSGVKRTAKDVIGKA: -0.206 ± 0.06; SKNWSEDDLHLLIKAVNLFPAGTNSRWEVIANYMNIHSSSGVKRTAKDVIGKA: -0.254 ± 0.075. Next, SKNWSEDDLNLLIKAVNLFPAGTNSRWEVIANYMNIHSSSGVKRTAKDVIGKA: -0.083 ± 0.085; SKNWSEDDLPLLIKAVNLFPAGTNSRWEVIANYMNIHSSSGVKRTAKDVIGKA: -0.802 ± 0.078. As for SKNWSEDDLDLLIKAVNLFPAGTNSRWEVIANYMNIHSSSGVKRTAKDVIGKA, the figure is -0.217 ± 0.075. For the variant SKNWSEDDLMLLIKAVNLFPAGTNSRWEVIANYMNIHSSSGVKRTAKDVIGKA, the abundance fitness was -0.34 ± 0.08. As for SKNWSEDDLKLLIKAVNLFPAGTNSRWEVIANYMNIHSSSGVKRTAKDVIGKA, the figure is -0.107 ± 0.075; as for SKNWSEDYLQLLIKAVNLFPAGTNSRWEVIANYMNIHSSSGVKRTAKDVIGKA, -0.712 ± 0.091; as for SKNWSEDTLQLLIKAVNLFPAGTNSRWEVIANYMNIHSSSGVKRTAKDVIGKA, -0.186 ± 0.071. As for SKNWSEDNLQLLIKAVNLFPAGTNSRWEVIANYMNIHSSSGVKRTAKDVIGKA, the abundance fitness is -0.757 ± 0.1. Next, SKNWSEDSLQLLIKAVNLFPAGTNSRWEVIANYMNIHSSSGVKRTAKDVIGKA: -0.615 ± 0.06; SKNWSEDALQLLIKAVNLFPAGTNSRWEVIANYMNIHSSSGVKRTAKDVIGKA: -0.977 ± 0.098. Next, SKNWSEDILQLLIKAVNLFPAGTNSRWEVIANYMNIHSSSGVKRTAKDVIGKA: -0.534 ± 0.091; SKNWSEDPLQLLIKAVNLFPAGTNSRWEVIANYMNIHSSSGVKRTAKDVIGKA: -1.06 ± 0.095. As to SKNWSEDQLQLLIKAVNLFPAGTNSRWEVIANYMNIHSSSGVKRTAKDVIGKA, the abundance fitness is -0.559 ± 0.1. As for SKNWSEDKLQLLIKAVNLFPAGTNSRWEVIANYMNIHSSSGVKRTAKDVIGKA, the figure is -0.422 ± 0.087; as for SKNWSEDVLQLLIKAVNLFPAGTNSRWEVIANYMNIHSSSGVKRTAKDVIGKA, -0.937 ± 0.077; as for SKNWSEDCLQLLIKAVNLFPAGTNSRWEVIANYMNIHSSSGVKRTAKDVIGKA, -0.732 ± 0.086. As for SKNWSEDELQLLIKAVNLFPAGTNSRWEVIANYMNIHSSSGVKRTAKDVIGKA, the figure is -0.081 ± 0.082. As for SKNWSEDRLQLLIKAVNLFPAGTNSRWEVIANYMNIHSSSGVKRTAKDVIGKA, the figure is -0.453 ± 0.064; as for SKNWSEDMLQLLIKAVNLFPAGTNSRWEVIANYMNIHSSSGVKRTAKDVIGKA, -0.844 ± 0.12.
